Data: US20190225698A1 (JIANGSU HENGRUI MEDICINE, published 2019)

Experiments:
[1] = target: T1, human CD27 expressed on the cell surface of transfected HEK293 cells (human, UniProt P26842 20-260); test: flow cytometry on transfected HEK293 cells
T1 construct: whole, on cells; also called human CD27 antigen expressed by HEK293 cells
T1 sequence (looked up): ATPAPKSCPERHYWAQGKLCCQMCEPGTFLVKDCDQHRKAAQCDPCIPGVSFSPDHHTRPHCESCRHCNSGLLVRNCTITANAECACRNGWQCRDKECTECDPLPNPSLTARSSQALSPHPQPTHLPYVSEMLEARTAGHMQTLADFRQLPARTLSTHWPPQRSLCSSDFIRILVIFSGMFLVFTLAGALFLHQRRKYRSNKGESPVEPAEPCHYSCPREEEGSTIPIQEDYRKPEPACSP

[2] = target: T2, human OX40 expressed on transfected HEK293 cells (human, UniProt P43489 29-277); test: flow cytometry on transfected HEK293 cells
T2 construct: whole, on cells
T2 sequence (looked up): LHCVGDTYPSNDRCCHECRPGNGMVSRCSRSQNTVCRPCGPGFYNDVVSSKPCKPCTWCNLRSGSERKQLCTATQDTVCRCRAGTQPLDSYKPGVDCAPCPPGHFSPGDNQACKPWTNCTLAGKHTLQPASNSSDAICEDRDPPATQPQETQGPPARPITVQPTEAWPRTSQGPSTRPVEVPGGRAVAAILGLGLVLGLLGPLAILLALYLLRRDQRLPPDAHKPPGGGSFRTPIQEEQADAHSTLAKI

[3] = target: T3, murine CD27 expressed on the cell surface of transfected HEK293 cells (murine, UniProt P41272 24-250); test: flow cytometry on transfected HEK293 cells
T3 construct: whole, on cells; also called mouse CD27 antigen expressed by HEK293 cells
T3 sequence (looked up): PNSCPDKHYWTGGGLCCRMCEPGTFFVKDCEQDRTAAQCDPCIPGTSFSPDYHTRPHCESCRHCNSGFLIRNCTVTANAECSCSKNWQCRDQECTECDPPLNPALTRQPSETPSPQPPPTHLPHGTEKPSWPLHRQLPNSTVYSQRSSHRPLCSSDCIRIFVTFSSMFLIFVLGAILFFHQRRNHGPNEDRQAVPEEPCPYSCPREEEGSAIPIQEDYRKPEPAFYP

[4] = target: T4, murine OX40 expressed on transfected HEK293 cells (murine, UniProt P47741 20-272); test: flow cytometry on transfected HEK293 cells
T4 construct: whole, on cells
T4 sequence (looked up): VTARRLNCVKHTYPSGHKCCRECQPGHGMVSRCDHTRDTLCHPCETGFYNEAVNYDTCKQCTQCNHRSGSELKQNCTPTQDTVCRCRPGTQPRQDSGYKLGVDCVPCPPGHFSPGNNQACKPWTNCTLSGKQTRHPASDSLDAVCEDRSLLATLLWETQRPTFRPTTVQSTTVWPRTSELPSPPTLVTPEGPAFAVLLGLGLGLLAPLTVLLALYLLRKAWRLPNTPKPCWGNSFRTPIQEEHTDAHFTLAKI

[5] = target: T1, human CD27 expressed on the cell …; test: flow cytometry on transfected HEK293 cells, 100 nM antibody
Description: (§1) The binding of antibody to human or murine CD27 expressed on cell surface is determined by fluorescence activated cell sorting (FACS). The corresponding antigen was transiently transfected into HEK293 cells using a vector plasmid and expressed. After 48 hours, cells were harvested and washed once with cold FACS buffer (PBS, 1% BSA), and then incubated with 100 nM corresponding antibody for 1 hour on ice. After washing twice with buffer, the cells were bound to Alexa Fluor 647-conjugated murine anti-human Fc antibody for 30 minutes on ice. After washing once, the cells were loaded onto a Beckman® CytoFlex flow cytometer for detection and the percentage of cells with binding signals was calculated.

[6] = target: T3, murine CD27 expressed on the cell …; test: as above
Description: as §1

Binder | binding result [1] | binding result [2] | binding result [3] | binding result [4] | binding result [5] | binding result [6]
anti-CD27 antibody mAb076 (IgG1 form) (antibody, V domains shown, Human antibody from phage display) VH: EVQLVESGGGLVQPGGSLRLSCAASGFTFSDYGIHWVRQAPGKGLEWIGWINPNRGSTNYAQKFQGRVTISRDNSKNTLYLQLNSLRAEDTAVYYCARDYGYTWYFDVWGQGTLVTVSS VL: DIQLTQSPSSLSASVGDRVTITCRASQDISSVLAWYQQKPGKAPKLLIYAASSLQSGVPSRFSGSGSGTDFTLTISSLQPEDFATYYCQQRDAWPLTFGQGTKVEIK | binds | no binding (tested: 100 nM) | binds | no binding (tested: 100 nM) |  | 
anti-CD27 antibody mAb077 (IgG1 form) (antibody, V domains shown, Human antibody from phage display) VH: EVQLVESGGGLVQPGGSLRLSCAASGFTFSGYGIHWVRQAPGKGLEWIGWINPNRGSTKYAQKFQGRVTISRDNSKNTLYLQLNSLRAEDTAVYYCARDPGYTWYFDVWGQGTLVTVSS VL: DIQLTQSPSSLSASVGDRVTITCRASQDISSDLAWYQQKPGKAPKLLIYAASTLQSGVPSRFSGSGSGTDFTLTISSLQPEDFATYYCQQRDAWPPTFGQGTKVEIK |  | no binding (tested: 100 nM) |  | no binding (tested: 100 nM) | binds | binds
